Key:
NMDA currents = conditions: Liu et al. 2008; cited from earlier work
[1] = molecular target: T1, NMDAR signaling complex in cultured hippocampal neurons (Rattus norvegicus, UniProt P11662+Q9WUD9); test: Co-immunoprecipitation from cultured hippocampal neurons; type: cell-based; conditions: IP anti-NR2B; 1 uM for 1 hour or 3 uM for 2 hours
T1 construct: endogenous in cells; host or cells: primary hippocampal neurons from E17/E18 Wistar rats, 14 DIV
Procedure: We next examined the effect of Tat-ND2 310-321 and Src40-49-Tat on the association of proteins in the NMDAR signaling complex in cultured hippocampal neurons at 14DIV. Neurons were treated with Tat-ND2 310-321 or Src40-49 at 1 uM for 1 hour (FIG. 13A) or at 3 uM for 2 hours (FIG. 13B). Cell lysates were purified and immunoprecipitated with anti-NR2B (left) and then stained with anti NR2B, anti-PSD95, anti-Src and anti-ND2 antibodies.
NMDAR and its associated proteins were prepared from cultured hippocampal (HP) neurons or rat brains. For in vitro competition experiments, two week HP neurons were collected after treatment with Src 40-49-Tat, Tat-ND2 310-321 or Tat peptides for 1 h at luM concentration or for 2 hours at 3 uM concentration then cells were quickly harvested and homogenized.
Lysates were incubated with Dynabeads protein G (Invitrogen) and selected antibodies for 30 minutes at room temperature. Isolated immunoprecipitates were resolved using SDS-PAGE and transferred to nitrocellulose membranes. The membranes were probed with selected detection antibodies, then stripped and reprobed with other detection antibodies.

[2] = molecular target: T2, ND2, Src, NMDAR subunits, and PSD95 in hippocampal neurons (Rattus norvegicus, UniProt P11662+Q9WUD9); test: Immunocytochemistry colocalization in 14DIV hippocampal neurons; type: cell-based; conditions: 1 uM peptide for 1 h, day 14 neurons
T2 construct: endogenous in cells; host or cells: primary hippocampal neurons from E17/E18 Wistar rats, 14 DIV
Procedure: A series of experiments was performed to examine the localization of ND2, Src, NMDAR subunits, and PSD95 in hippocampal neurons by immunocytochemistry in the presence of Tat, Tat-ND2 310-321, or Src 40-49-Tat. Briefly, hippocampal neurons were isolated from embryonic day #17/E18 Wistar rats, and cultured in neurobasal media containing coverslips with B27 and glutamax. Cells were then treated for 1 hr with luM peptide before fixing by standard methods. Proteins were visualized using specific antibodies and secondary antibodies coupled to fluorescent molecules. Colocalization of fluorescence was calculated by merging the images in Photoshop and calculating the % colocalized between pairs as the total colocalized fluorescence clusters divided by the total number of clusters (e.g., % colocalized ND2 with Src=(total colocalized)/(total ND2 clusters); % colocalized Src with ND2=(total colocalized)/(total Src clusters)).
Hippocampal neurons cultured on coverslips were treated with 1 uM of Src 40-49-Tat, Tat-ND2 310-321 or Tat for 1 h at the day 14. Then neurons were incubated in 4% paraformaldehyde and 4% sucrose in phosphate-buffered saline (PBS) for 10 minutes followed by 5 minutes […] at room temperature (RT). Cells were permeabilized with 0.25% Triton X-100 in PBS for 5 minutes and by treatment with 5% donkey serum in PBS for 30 minutes at RT. The cultures were incubated with a mixture of the primary antibodies, raised in various species, in 0.25% Triton X-100 PBS for 2 hours at RT, washed, and incubated for 1 hour at RT with a mixture of species-specific secondary antibodies all raised in donkey and conjugated to either Texas Red, or FITC fluorophores (1:200 dilution in 0.25% Triton X-100 PBS). The coverslips were washed with PBS and mounted using ProLong Gold antifade reagent (Invitrogen). Images were collected using a 60× pan-fluor objective on a Nikon Eclipse TE 200 microscope. The images were analyzed with PhotoShop 7 (Adobe, San Jose, Calif.). Brightness and contrast were adjusted, sharpened using the unsharpen mask tool, and the images were merged for color colocalization.
For quantification of the colocalization, the maximum intensities of the fluorophore channels were normalized and the background fluorescence of each channel seen in the dendrites was subtracted, the color images were merged. Two clusters in two different channels were considered colocalizing when at least 66% of the surface of one clusters in one of the two channels overlapped with a clusters in the other channel. For each combination of antibodies, three independent immunofluorescence experiments were done. Each measurement was taken from a 50-m-long dendritic segment (with an average width of 2 m). Colocalization was expressed as the percent of the total clusters analyzed.

rats subjected to 3PVO = test: Three pial vessel occlusion (3PVO) model of stroke, infarct volume; type: in vivo, rat; conditions: 3 nmol/g intravenous one hour post-surgery; 24 hours after surgery; n=10
Procedure: The efficacy of ND2 inhibitors in the treatment of stroke was examined using the three pial vessel occlusion (3PVO) model of stroke. This is a permanent model of stroke that creates small but consistent infarcts at 24 hours.
Male Sprague Dawley rats (n=10 in each group) were surgically subjected to permanent occlusion of the pial vessels. One hour post-surgery, animals were given an intravenous injection of Saline, Tat-NR2B9c (Aarts et al, Science, 2002), Src 40-49-Tat or Tat-ND2 310-321 and allowed to further recover in their cages. 24 hours after surgery, brains were harvested, sliced and incubated with TTC to visualize the areas of infarction. The infarct volume of each animal was determined, as well as the average volumes for each group of ten.
Both peptides were myristoylated via an amide bond to the alpha-amino group of the N-terminal amino acid of the peptide.
Male Sprague Dawley rats (n=10 in each group) weighing between 230 and 290 g were used for this study. Experiments were performed on fasted rats (Free overnight access to water but not food). For permanent three pial vessel occlusion (3PVO) was performed as described previously (Forder J et al., 2005, supra). In brief, rats were anesthetized with a 0.5 ml/kg intramuscular injection of ketamine (100 mg/kg), acepromazine (2 mg/kg), and xylazine (5 mg/kg), supplemented with one-third of the initial dose as required. An anal temperature probe was inserted, and the animal was placed on a heating pad maintained at 37° C. The skull was exposed via a midline incision and scraped free of tissue. Using a dissecting microscope and a pneumatic dental drill, a 6- to 8-mm cranial window was made over the right somatosensory cortex (2 mm caudal and 5 mm lateral to bregma) by drilling a rectangle through the skull and lifting off the piece of skull while keeping the dura intact. The 3 pial arteriolar middle cerebral artery branches around the barrel cortex were selected and electrically cauterized through the dura. After the cauterizations, the scalp was sutured. […]

[3] = molecular target: T3, binding of biotinylated Src40-49 to Tat-ND2 310-321 (Homo sapiens, UniProt P03891); test: Competition ELISA, binding of biotinylated Src40-49 to pre-coated Tat-ND2 310-321; conditions: FIG. 5E
T3 construct: 10; Tat-ND2 310-321; […]
Procedure: Competition ELISAs were also performed. […] In a similar manner, ND2 constructs bearing amino acid sequences from the 300-321 region are able to act as inhibitors of the interaction between ND2 and Src.

[4] = tested on: association of Src and ND2; conditions: Liu et al. 2008; cited from earlier work
[5] = tested on: Formalin, CFA and peripheral nerve constriction pain models; conditions: Liu et al. 2008; cited from earlier work
[6] = molecular target: T4, NMDA Receptor complex in rat brains subjected to 3PVO (Rattus norvegicus, UniProt P11662+Q9WUD9); test: Co-immunoprecipitation from rat brains subjected to 3PVO stroke; type: in vivo; conditions: injection 1 hour post-surgery, harvest 2 hours post-surgery; compared with Tat-ND2 310-321
T4 construct: from tissue; host or cells: rat brain cortex (ipsilateral and contralateral hemispheres) after 3PVO ischemia
Procedure: The status of these proteins was next examined in rat brains that had been subjected to a 3PVO stroke. After 3PVO ischemia, rodents were given either Tat-ND2 310-321 or saline via tail vein injection. At one hour post-surgery, the brains were quickly harvested and lysed. Following IP with anti NR2B antibodies, the membranes were incubated with anti phosphotyrosine antibodies, developed, and subsequently probed with anti Src, phosphorylated Src (pTys) and anti PSD95 antibodies. As an internal control, both the ipsilateral and contralateral hemispheres (I and C, respectively) were prepared.
A second set of experiments was performed on animals subjected to 3PVO, modified such that the saline, Src 40-49-Tat or Tat-ND2 310-321 was administered by tail vein injection 1 hour post-surgery and the brains were harvested and lysed 2 hours post-surgery.
For in vivo experiments, one hour after 3PVO ischemia, rats were injected with indicated peptides or saline by intravenous tail vein. Two hours after surgery (one hour after administration of compounds), the selected cortex of the brain was quickly harvested and homogenized.
Lysates were incubated with Dynabeads protein G (Invitrogen) and selected antibodies for 30 minutes at room temperature. Isolated immunoprecipitates were resolved using SDS-PAGE and transferred to nitrocellulose membranes. […]

ND2 310-321 = molecular target: T5, ND2 310-321 (Homo sapiens, UniProt P03891); test: Dot blot of Src fragments probed with biotinylated ND2 310-321; type: binding; conditions: FIG. 5A
T5 construct: 7; NVKMKWQFEHTK
Procedure: Src40-49-Tat indicate a fusion peptide in which the human HIV-1 tat protein transduction domain [[…]] […] (SEQ ID NO:10). […] The peptides were plated at a concentration of ˜5 uM.

T3 sequence (P03891 other isoform, or with tags, fused parts or gaps): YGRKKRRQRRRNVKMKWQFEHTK

KPASADGHRGYGRKKRRQRRR [Src 40-49-Tat]
NMDA currents (NMDA currents): reduced NMDA currents | association of NR2B with Src [1]: reduces the association of NR2B with Src | association (colocalization) between ND2 and NR2B [2]: do not significantly affect | colocalization between PSD95 and NR2B [2]: similarly disrupted | colocalization of ND2 with PSD95 [2]: reduces the colocalization of ND2 with PSD95 | colocalization of Src and ND2 [2]: able to reduce the amount of colocalization of Src and ND2 | colocalization between NR2B and Src ([2]; FIG. 10): able to reduce the colocalization | colocalization between PSD95 and Src ([2]; FIG. 11): able to reduce the colocalization | reducing infarct volumes (statistical effect) (rats subjected to 3PVO): not statistically effective | inhibition of binding of biotinylated Src40-49 to Tat-ND2 310-321 (competition ELISA) [3]: inhibited | association of Src and ND2 in neuronal lysates [4]: disrupt the association of Src and ND2 in neuronal lysates | effect on inflammatory and neuropathic pain [5]: beneficial effect | uncoupling PSD95 and Src from the NMDA Receptor [6]: not nearly as effective | binding of biotinylated ND2 310-321 (dot blot) (ND2 310-321): bound ND2 310-321

From patent US9073976B2, “ND2 peptides and methods of treating neurological disease” (NoNO Inc., priority 2010, dated 2015)
